Measured values published in paper PMC4385409.

Target: cytoplasmic dynein-1 heavy chain (bovine) (bovine)
Assay: negative stain EM

Substance “cytoplasmic dynein-1 heavy chain (bovine) (natural protein)” has a stoichiometry N of 2.
